# Results: the nanobody polyreactivity screen of Harvey et al. (2022)
# Experiment: yeast display, Sf9 membrane polyspecificity reagent, FACS + sequencing; frameworks hold sequencing errors
# Outline: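 Galactose induction of a Saccharomyces cerevisiae BJ5465 synthetic nanobody display library ran 36–48 hours. The cells were then stained for 1 hour at 4 °C with 10% biotinylated, detergent-solubilized Sf9 membrane reagent, pulled down on streptavidin microbeads and FACS-sorted into low and high (top ~1%) gates on expression and reagent-binding fluorescence. Labels for polyreactivity follow the gate of origin.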
row,Sequence,polyreactivity (PSR sort gate)
1,QVQLVESGGGLVQAGGSLRLSCAASGRIFGANAMGWYRQAPGKERELVATITYGGTSTYYADSVKGRFTISRDNGKNTVYLQMNSLKPEDTAVSYCAADGYSVFAAILGEYFDSDYWGQGTQVTVSS,low polyreactivity
2,QVQLVESGGGLVQAGGSLRLSCAASGRIFGANAMGWYRQAPGKERELVAVITGGGGTYYADSVKGRFTISRDNAKNTVYLQMNRLKPEETAVYYCDWPRYYYTYPSHPMDYWGQGTQVTVSS,low polyreactivity
3,QVQLVESGGGLVQAGGSLRLSCAASGRIFGANARGWYRQAPGKERELVATITYGGTSTYYADSVKGRFTISRDNAKNTVYLQMNSLKPEDTAVYYCAADGYSVFAAILGEYFDYDYWGQGTQVTVSS,low polyreactivity
4,QVQLVESGGGLVQAGGSLRLSCAASGRIFGAYAMGSYRQAPGKERELVAAIDIRGGKTYYADSVKGRFTISRDYSKNSVYLQMNSMKPEDTAVYYCAADTWYDAYNYWGQGTQVTVSS,low polyreactivity
5,QVQLVESGGGLVQAGGSLRLSCAASGRIFGAYAMGWYRQAPGKERELVAAITSGGSTYADSVKGRFTISRDNAKNTVYLQMNSLKPEDTAVYYCAADLITRSDSWWTGWIWEYDYWGQGTQVTVSS,low polyreactivity
6,QVQLVESGGGLVQAGGSLRLSCAASGRIFGAYAMGWYRQAPGKERELVADIRSTGSTNYADSVKGRFTISRDNAKNTVYLQMNSLKPEDTAVYYCAARWRSRRFGSGFEYWGQGTQVTVSS,high polyreactivity
7,QVQLVESGGGLVQAGGSLRLSCAASGRIFGCYSMGWYRPAPGKEREEVAAITWSGTSTYYADSVKGRFTISRENAKNTVYLQMNSLQPEDTAVYYCAADSLSGSAPTYYSTLEYWGQGTQVTVSS,low polyreactivity
8,QVQLVESGGGLVQAGGSLRLSCAASGRIFGDNAMGWYRQAPGKEREFVATINGSGGSTYYADSVKGRFTISRDNAKNTVYLQMNSLKPEDTAVYYCFVQQNYGYDYWGQGTQVTVSS,low polyreactivity
9,QVQLVESGGGLVQAGGSLRLSCAASGRIFGDNTMGWYRQAPGKERELVAAISFTGGSTYYADSVKGRFSISRDNAKNTVYLQMNSLKPEDTAVYYCNADWVSTWGYDYWGQGTQVTVSS,low polyreactivity
10,QVQLVESGGGLVQAGGSLRLSCAASGRIFGDYAMGWYRQAPGKERELVAAISYSGGSTYYADSVKGRFTISRDNAKNTVYLQMNSLKPEDTAVYYCNKRWYTYGRYGVQGYDYWGQGTQVTVSS,high polyreactivity
11,QVQLVESGGGLVQAGGSLRLSCAASGRIFGEYAMGWYRQAPGKERELVAAITSSTGSTYYADSVKGRFTISRDNAKNTVYLQMNSLKPEDTAVYYCAAADLKYASYWYDYWGQGTQVTVSS,low polyreactivity
12,QVQLVESGGGLVQAGGSLRLSCAASGRIFGFYAMGLYRQAPGKERELVARITLSGGRTYYADSVKGRFTISRDNAKNTVYLQMNSLKPEDTAVYYCAADSIGRLWGYGYWGQGTQVTVSS,high polyreactivity
13,QVQLVESGGGLVQAGGSLRLSCAASGRIFGFYAMGWYRQAPGKEREFVAAITWSGTNTYYADSVKGRFTISRDNAKNTVYLQMNSLKPEDTAVYYCNARQYYKYGYWGQGTQVTVSS,high polyreactivity
14,QVQLVESGGGLVQAGGSLRLSCAASGRIFGFYAMGWYRQAPGKERELVADINWSATSTYYADSVKGRFTISRDNAKNTVYLQMNSLKPEDTAVYYCAADVSYRYYWGQVTQVTVSS,low polyreactivity
15,QVQLVESGGGLVQAGGSLRLSCAASGRIFGFYAMGWYRQAPGKERELVADITSGGSTNYADSVKGRFTISRDNAKNTVYLQMNSLKPEDTAVYYCNALSYVWYRYPGNWDEDDYWGQGTQVTVSS,low polyreactivity
16,QVQLVESGGGLVQAGGSLRLSCAASGRIFGFYAMGWYRQAPGKERELVARITSGGRTTYADSVKGRFTISRDNAKNTVYLQMNSLKPEDTAVYYCAADARYHGFPKVYYYRGGYDYWGQGTQVTVSS,high polyreactivity
17,QVQLVESGGGLVQAGGSLRLSCAASGRIFGGNAMGWYRQAPGKERELVAAISKRGGSTYYADSVKWRFTISRDNAKNTVYLQMNILKPEDTAVYYCAATAYADQGLDYGYWGQGTQVTVSS,high polyreactivity
18,QVQLVESGGGLVQAGGSLRLSCAASGRIFGGNAMGWYRQAPGKERELVAAITSGGTTNYADSVKGRFTISRDNAKNTVYLQMNSLKPEDTAVYYCAADFKPLYYDEYDYWGQGTQVTVSS,low polyreactivity
19,QVQLVESGGGLVQAGGSLRLSCAASGRIFGGNAMGWYRQAPGKERELVAAITTRGGSTYADSVKGRFTISRDKAKNTVYLQMNSLKPEDTAVYYCAVERSYHGGPRYLVRTYGYWGQGTQVTVSS,low polyreactivity
20,QVQLVESGGGLVQAGGSLRLSCAASGRIFGGNTMGWYRQAPGKEREFVAAITQSGTRTYYADSVKGRFTISRDNAKNTVYLQMNSLKPEDTAVYYCAATWRQHPGSMGYWGQGTQVTVSS,high polyreactivity
21,QVQLVESGGGLVQAGGSLRLSCAASGRIFGGYAMGWYRPAPGKERELVAAISSRGGSTYYADSVKGRFTISRDNAKNTVYLQMNSLKPEDTAVYYCAADGRVKGWGQGTQVTVSS,high polyreactivity
22,QVQLVESGGGLVQAGGSLRLSCAASGRIFGGYAMGWYRQAPGKERELVAAISSGGNTKYADSVKGRFTISRDNAKNTVYLQMNSLKPEDTAVYYCAAKFAQPYYRYDYWGQGTQVTVSS,high polyreactivity

row,Sequence,polyreactivity (PSR sort gate)
1,QVQLVESGGGLVQAGGSLRLSCAASGRIFGGYAMGWYRQAPGKERELVASITARGTSTYYADTVKGRFTISRDNAKNTVYLQMNRLKPEDTAVYYCNALYRIYRNQWFISNYGYYYWGQGTQVTVSS,low polyreactivity
2,QVQLVESGGGLVQAGGSLRLSCAASGRIFGGYAMGWYRQAPGKERELVAVINGGTSTKYADSVKGRFTISRDNAKNTVYLQMNSLKPEDNAVYYCAKTRHDSLQNRNRYDYWGQGTQVTVSS,low polyreactivity
3,QVQLVESGGGLVQAGGSLRLSCAASGRIFGGYAMGWYRQAPGKERELVAVITDGGSTNYADSVKGRFTISRDNAKNTVYLQMNSLKPEDTAVYYCAADSYGDEPPYDYWGQGTQVTVSS,low polyreactivity
4,QVQLVESGGGLVQAGGSLRLSCAASGRIFGGYTMGWYRQAPGKERELVAAITSGGSTNYADSVKGRFTISRDNAKNTVYLQMNSLKPEDTAVYYCAATYDGTYDYWGQGTQVTVSS,high polyreactivity
5,QVQLVESGGGLVQAGGSLRLSCAASGRIFGINVMGWYRPAPGKERELVARITGRGGRTYYADSVKGRFTMSRDNAKNTVYLQMNSLKPEDTAVYYCAADARYEAYDYWGQGTQVTVSS,high polyreactivity
6,QVQLVESGGGLVQAGGSLRLSCAASGRIFGIYAMGWYRQAPGKERELVAAISKSGARTYYADSVKGRFTISRDNAKNTVFLQMNSLKPEDTAVYYCNAYRRKYYFTYGSWGQGTQVTVSS,high polyreactivity
7,QVQLVESGGGLVQAGGSLRLSCAASGRIFGIYAMGWYRQAPGKERELVARITGGGSTNYADSVKGRFTISRDNAKNTVYLQMNSLKPEDTAVYYCAATVRRIVGNITRYDYWGQGTQVTVSS,low polyreactivity
8,QVQLVESGGGLVQAGGSLRLSCAASGRIFGKYAMGWYRQAPGKERELVAAIRITGGSTYYADSVKGRFTISRDNAKNTVYLQMNSLKPEDTAVYYCAAVYKYADVIYDYWGQGTQVTVSS,high polyreactivity
9,QVQLVESGGGLVQAGGSLRLSCAASGRIFGKYAMGWYRQAPGKERELVATISLSGVRTYYADSVKGRFTISRDNAKNTVYLQMNSLKPEDTAVYYCASCYSSNGDYWGQGTQVTVSS,low polyreactivity
10,QVQLVESGGGLVQAGGSLRLSCAASGRIFGKYMGWYRQAPGKERELVAAISRNGGRTYYADSVKGRFTISRDNAKNTVYLQMNCLNPEDTAVYYCAAASSRYDYWGQGTQVTVSS,high polyreactivity
11,QVQLVESGGGLVQAGGSLRLSCAASGRIFGLYAMGWYRQAPGKERELVAAISSRGGNTYYADSVKGRFTISRDDAKNTVYLQMNSLKPEDTAVYYCARDSYSLSRTYDSWGQGTQVTVSS,high polyreactivity
12,QVQLVESGGGLVQAGGSLRLSCAASGRIFGNNAMGLYRQAPGKERELVAAIRRGGSTYYADSVKGRFTISRDNAKNTVYLQMNSLKPEDTAVYYCAADSSRKHFYWGQGTQVTVSS,high polyreactivity
13,QVQLVESGGGLVQAGGSLRLSCAASGRIFGNNAMGWYRQAPGKERELVATITRRGGSTYYADSVKGRFTISRDNAKNTVYLQMNSLKPEDTAVYYCAADRWPYWVAFYSWGQGTQVTVSS,high polyreactivity
14,QVQLVESGGGLVQAGGSLRLSCAASGRIFGNYAMGWYIQAPGKERELVAAISSGGNTNYADSVKGRFTISRDNAKNTVYLQMNSLKPEDTAVYYCAAYHFSFGWIRVDYWGQGTQVTVSS,high polyreactivity
15,QVQLVESGGGLVQAGGSLRLSCAASGRIFGNYAMGWYRQAPGKERELVAAISGGGSTYYADSVKGRFTISRDNAKNTVYLQLNSLKPEDTAVYYCAARFLWSVFGGKGGYWGQGTQVTVSS,low polyreactivity
16,QVQLVESGGGLVQAGGSLRLSCAASGRIFGPDAMRWYRQAPRKERELVAAITWRGDRTYYADSVKGRFTISRDIAKNSVYLQINSLKPEDTAVYYCAARGGRSEYDYWGQATQVTVSS,low polyreactivity
17,QVQLVESGGGLVQAGGSLRLSCAASGRIFGPYAMGWYRQAPGKDRELVASISYSGGSTYYADSVKGRFTISRDKAKNTVYLQMNSLKPEDTAVYYCDKAGYWRGYNYWGQGTQVTVSS,low polyreactivity
18,QVQLVESGGGLVQAGGSLRLSCAASGRIFGPYAMGWYRQAPGKERELVATITWRTGSTYYADSVKGRFTISRDNAKNTVYLQMNSLKPEDTAVYYCAAQSRQAYITYGYWGQGTQVTVSS,high polyreactivity
19,QVQLVESGGGLVQAGGSLRLSCAASGRIFGQNAMGWYRQAPGKERELVAVISQSGGRTYYADSVKGRFTISRDNAKNTVYLQMNSLKPEDTAVYYCAKGGYQHYWGQGTQVTVSS,high polyreactivity
20,QVQLVESGGGLVQAGGSLRLSCAASGRIFGQYAMGWYRQAPGKERELVASISRRGGSTNYADSVKGRFTISRDNAKNTVYLQMNSLKPEDSAVYYCAARTWRRQYYRTRYEYWGQGTQVNVSS,high polyreactivity
21,QVQLVESGGGLVQAGGSLRLSCAASGRIFGRNAMGWYRKAPGKERELVAAISWRGGNTYYADSVKGRFTISRDNAKNTVYLQMNSLKPEDTAVYYCNTVQYRNEMGYWGQGTQVTVSS,high polyreactivity
